Laboratory results taken from patent US20130078245A1 (REGENTS OF THE UNIVERSITY OF COLORADO A BODY CORPORATE, published 2013).

Target: T1, recombinant human C3d (human, UniProt P01024 996-1303, limits assumed)
T1 construct: domain: C3d; The Biacore paragraph says only C3d; also called recombinant C3d
Assay: BIAcore SPR, C3d immobilized on the chip, antibody at 10, 30 and 90 nM in flow, 1:1 Langmuir fit
From the text: The binding affinity of the anti-C3d/C3dg antibodies to C3d was further tested by BIAcore analysis.

T1 sequence (P01024 996-1303 limits assumed): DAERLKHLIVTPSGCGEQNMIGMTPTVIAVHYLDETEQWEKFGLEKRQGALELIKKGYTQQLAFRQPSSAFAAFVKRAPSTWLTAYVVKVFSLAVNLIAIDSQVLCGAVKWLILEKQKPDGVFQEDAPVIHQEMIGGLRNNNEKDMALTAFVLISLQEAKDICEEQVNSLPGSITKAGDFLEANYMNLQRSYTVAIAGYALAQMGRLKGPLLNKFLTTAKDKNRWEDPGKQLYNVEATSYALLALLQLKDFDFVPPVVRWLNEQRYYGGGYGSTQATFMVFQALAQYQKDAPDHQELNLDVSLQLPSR

Kd: 1.06 nM
B1: mouse monoclonal anti-C3d antibody 3d29, produced by hybridoma cell line 3d-29/5/2 (ATCC PTA-11000) (antibody, V domains shown)
VH: EVQLQQSGPVLVKPGASVKMSCKASGYTFTDYYMNWVKQSHGKSLEWIGVINPYNGGTSYNQKFKGKATLTVDKSSRTAYMELNSLTSEDSAVYYCSRGGPYWGQGTTLTVSS
VL: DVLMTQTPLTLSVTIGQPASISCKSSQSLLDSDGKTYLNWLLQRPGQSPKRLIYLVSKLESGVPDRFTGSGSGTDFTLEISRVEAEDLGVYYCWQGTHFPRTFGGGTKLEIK
notes: Whole mouse IgG purified on protein G; also called mAb 3d29; clone 3d29
